Experimental data published in the Immune Epitope Database (IEDB).
pIC50, pKd: −log10 of the molar value.

Experiments:
HLA-B*27:05 [1] = test: IEDB peptide-MHC binding, purified MHC/competitive/fluorescence; filed as Kd, often an IC50 or EC50 that approximates it; ≥ and ≤ were set here for values at or beyond the usual limits of such assays
HLA-A*02:12 [2] = test: IEDB peptide-MHC binding, purified MHC/direct/fluorescence; filed as Kd, often an IC50 or EC50 that approximates it; ≥ and ≤ were set here for values at or beyond the usual limits of such assays
HLA-A*02:11 [3] = test: as above
HLA-A*02:01 [4] = test: as above
HLA-B*39:01 = test: IEDB peptide-MHC binding, purified MHC/competitive/fluorescence; filed as Kd, often an IC50 or EC50 that approximates it; ≥ and ≤ were set here for values at or beyond the usual limits of such assays
HLA-B*46:01 = test: as above
HLA-B*15:17 = test: as above
HLA-A*69:01 [5] = test: as above
HLA-B*57:01 = test: as above
HLA-A*02:01 [6] = test: as above
HLA-B*27:03 = test: as above
HLA-B*18:01 = test: as above
HLA-B*51:01 = test: as above
HLA-A*26:01 = test: as above
HLA-B*15:01 [7] = test: as above
HLA-A*02:19 [8] = test: IEDB peptide-MHC binding, purified MHC/direct/fluorescence; filed as Kd, often an IC50 or EC50 that approximates it; ≥ and ≤ were set here for values at or beyond the usual limits of such assays
HLA-A*24:03 = test: as above
HLA-A*03:01 = test: as above
HLA-A*02:03 [9] = test: as above
HLA-A*68:02 = test: as above
HLA-A*23:01 = test: as above
HLA-B*27:05 [10] = test: as above; settings: source organism: Reston ebolavirus - Reston
HLA-A*02:16 [11] = test: as above
HLA-A*29:02 = test: as above
HLA-A*01:01 = test: IEDB peptide-MHC binding, purified MHC/competitive/fluorescence; filed as Kd, often an IC50 or EC50 that approximates it; ≥ and ≤ were set here for values at or beyond the usual limits of such assays; settings: source organism: Human immunodeficiency virus 1
HLA-A*11:01 = test: as above; settings: source organism: Human immunodeficiency virus 1
HLA-A*26:02 = test: as above; settings: source organism: Human immunodeficiency virus 1
HLA-A*30:01 = test: as above; settings: source organism: Human immunodeficiency virus 1
HLA-A*02:03 [12] = test: as above
HLA-A*02:06 = test: as above
HLA-A*02:19 [13] = test: as above; settings: source organism: Human immunodeficiency virus 1
HLA-A*02:12 [14] = test: as above
HLA-A*02:11 [15] = test: as above
HLA-A*02:16 [16] = test: as above; settings: source organism: Human immunodeficiency virus 1
HLA-B*08:01 = test: IEDB peptide-MHC binding, purified MHC/competitive/fluorescence; ≥ and ≤ were set here for values at or beyond the usual limits of such assays
HLA-A*24:02 = test: as above
HLA-B*15:01 [17] = test: as above
HLA-B*40:01 = test: IEDB peptide-MHC binding, purified MHC/direct/fluorescence; filed as Kd, often an IC50 or EC50 that approximates it; ≥ and ≤ were set here for values at or beyond the usual limits of such assays; settings: source organism: Ebola virus - Eckron (Zaire, 1976)
HLA-B*07:02 [18] = test: as above; settings: source organism: Zaire ebolavirus
HLA-B*07:02 [19] = test: IEDB peptide-MHC binding, purified MHC/competitive/fluorescence; ≥ and ≤ were set here for values at or beyond the usual limits of such assays; settings: source organism: Zaire ebolavirus
HLA-B*58:01 = test: IEDB peptide-MHC binding, purified MHC/direct/fluorescence; filed as Kd, often an IC50 or EC50 that approximates it; ≥ and ≤ were set here for values at or beyond the usual limits of such assays; settings: source organism: Haemophilus influenzae
HLA-A*69:01 [20] = test: as above; settings: source organism: Haemophilus influenzae
HLA-B*15:01 [21] = test: as above; settings: source organism: Haemophilus influenzae
[22] = source organism: Orthohantavirus hantanense
[23] = source organism: Reston ebolavirus
[24] = source organism: Human immunodeficiency virus 1
[25] = source organism: Vaccinia virus
[26] = source organism: Zaire ebolavirus
[27] = source organism: Haemophilus influenzae 3655

For KRYLQAKSE, the pKd (HLA-B*27:05 [1]; source organism: Escherichia coli 536) was 6.94.

WLIEPCKLL gave a pKd (HLA-A*02:12 [2]; [22]) of 6.86, a pKd (HLA-A*02:11 [3]; [22]) of 8.30 and a pKd (HLA-A*02:01 [4]; [22]) of 7.61.

Sequence RRELSKEKL has a pKd (HLA-B*39:01; [23]) of at most 4.70, a pKd (HLA-B*46:01; [23]) of at most 4.70 and a pKd (HLA-B*15:17; [23]) of at most 4.70. The pKd (HLA-A*69:01 [5]; [23]) was at most 4.70, the pKd (HLA-B*57:01; [23]) was at most 4.70 and the pKd (HLA-A*02:01 [6]; [23]) was at most 4.70. It also gave a pKd (HLA-B*27:03; [23]) of at most 4.70, a pKd (HLA-B*18:01; [23]) of at most 4.70 and a pKd (HLA-B*51:01; [23]) of at most 4.70. The pKd (HLA-A*26:01; [23]) was at most 4.70, the pKd (HLA-B*15:01 [7]; [23]) was at most 4.70 and the pKd (HLA-A*02:19 [8]; [23]) was at most 4.70. It also gave a pKd (HLA-A*02:12 [2]; [23]) of at most 4.70, a pKd (HLA-A*02:11 [3]; [23]) of at most 4.70 and a pKd (HLA-A*24:03; [23]) of at most 4.70. The pKd (HLA-A*03:01; [23]) was at most 4.70, the pKd (HLA-A*02:03 [9]; [23]) was at most 4.70 and the pKd (HLA-A*68:02; [23]) was at most 4.70. It also gave a pKd (HLA-A*23:01; [23]) of at most 4.70, a pKd (HLA-B*27:05 [10]) of at most 4.70 and a pKd (HLA-A*02:16 [11]; [23]) of at most 4.70. It also gave a pKd (HLA-A*29:02; [23]) of at most 4.70.

In the case of GRAGVVPRY, the pKd (HLA-B*27:05 [1]; source organism: Mycobacterium tuberculosis variant bovis BCG str. Pasteur 1173P2) was 6.64.

With RSLFNTIAVLY the pKd (HLA-A*01:01) was at most 4.70, the pKd (HLA-B*15:17; [24]) was 7.03 and the pKd (HLA-A*11:01) was at most 4.70. It also gave a pKd (HLA-A*26:02) of 5.87, a pKd (HLA-B*18:01; [24]) of 5.83 and a pKd (HLA-A*30:01) of at most 4.70. The pKd (HLA-A*02:03 [12]; [24]) was 6.45, the pKd (HLA-A*02:06; [24]) was 6.17 and the pKd (HLA-B*15:01 [7]; [24]) was 5.44.

With GLGQHIYET the pKd (HLA-A*02:19 [13]) was 6.11, the pKd (HLA-A*02:12 [14]; [24]) was 7.12 and the pKd (HLA-A*02:11 [15]; [24]) was 8.02. It also gave a pKd (HLA-A*69:01 [5]; [24]) of at most 4.70, a pKd (HLA-A*02:01 [6]; [24]) of 5.43 and a pKd (HLA-A*02:03 [12]; [24]) of 7.39. For the same sequence, the pKd (HLA-A*02:06; [24]) was 6.92 and the pKd (HLA-A*02:16 [16]) was 8.69.

YSKDSRNKL showed a pIC50 (HLA-B*08:01; [25]) of at most 4.11, a pIC50 (HLA-A*24:02; [25]) of 4.71 and a pIC50 (HLA-B*15:01 [17]; [25]) of at most 3.59.

Sequence YRIWLEQNK has a pKd (HLA-B*27:05 [1]; source organism: Mycobacterium tuberculosis C) of 7.08.

Sequence KEGKLQCRI has a pKd (HLA-B*39:01; [26]) of at most 4.70, a pKd (HLA-B*46:01; [26]) of at most 4.70 and a pKd (HLA-B*15:17; [26]) of at most 4.70. For the same sequence, the pKd (HLA-A*69:01 [5]; [26]) was at most 4.70, the pKd (HLA-B*57:01; [26]) was at most 4.70 and the pKd (HLA-A*02:01 [6]; [26]) was at most 4.70. The pKd (HLA-B*27:03; [26]) was at most 4.70, the pKd (HLA-B*18:01; [26]) was at most 4.70 and the pKd (HLA-B*51:01; [26]) was at most 4.70. For the same sequence, the pKd (HLA-A*26:01; [26]) was at most 4.70, the pKd (HLA-B*15:01 [7]; [26]) was at most 4.70 and the pKd (HLA-B*40:01) was at most 4.70. The pKd (HLA-A*02:19 [8]; [26]) was at most 4.70, the pKd (HLA-A*02:12 [2]; [26]) was at most 4.70 and the pKd (HLA-A*02:11 [3]; [26]) was at most 4.70. The pKd (HLA-A*24:03; [26]) was at most 4.70, the pKd (HLA-A*03:01; [26]) was at most 4.70 and the pKd (HLA-A*02:03 [9]; [26]) was at most 4.70. The pKd (HLA-A*68:02; [26]) was at most 4.70, the pKd (HLA-A*23:01; [26]) was at most 4.70 and the pKd (HLA-A*02:16 [11]; [26]) was at most 4.70. It also gave a pKd (HLA-A*29:02; [26]) of at most 4.70.

In the case of RDRFKRTSF, the pKd (HLA-B*39:01; [26]) was at most 4.70, the pKd (HLA-B*46:01; [26]) was at most 4.70 and the pKd (HLA-B*15:17; [26]) was at most 4.70. For the same sequence, the pKd (HLA-A*69:01 [5]; [26]) was at most 4.70, the pKd (HLA-B*57:01; [26]) was at most 4.70 and the pKd (HLA-A*02:01 [6]; [26]) was at most 4.70. The pKd (HLA-B*27:03; [26]) was at most 4.70, the pKd (HLA-B*18:01; [26]) was at most 4.70 and the pKd (HLA-B*51:01; [26]) was at most 4.70. The pKd (HLA-A*26:01; [26]) was at most 4.70, the pKd (HLA-B*15:01 [7]; [26]) was at most 4.70 and the pKd (HLA-B*07:02 [18]) was at most 4.70. For the same sequence, the pKd (HLA-A*02:19 [8]; [26]) was at most 4.70, the pKd (HLA-A*02:12 [2]; [26]) was at most 4.70 and the pKd (HLA-A*02:11 [3]; [26]) was at most 4.70. The pKd (HLA-A*24:03; [26]) was at most 4.70, the pKd (HLA-A*03:01; [26]) was at most 4.70 and the pKd (HLA-A*02:03 [9]; [26]) was at most 4.70. It also gave a pKd (HLA-A*68:02; [26]) of at most 4.70, a pKd (HLA-A*23:01; [26]) of at most 4.70 and a pKd (HLA-A*02:16 [11]; [26]) of at most 4.70. It also gave a pIC50 (HLA-B*07:02 [19]) of at most 4.13, a pIC50 (HLA-B*08:01; [26]) of at most 3.94 and a pIC50 (HLA-A*24:02; [26]) of 4.72. For the same sequence, the pIC50 (HLA-B*15:01 [17]; [26]) was 4.44.

LMTAISQGI gave a pKd (HLA-A*02:12 [14]; [27]) of 8.94, a pKd (HLA-A*02:11 [15]; [27]) of at least 10.00 and a pKd (HLA-A*02:03 [12]; [27]) of at least 10.00. For the same sequence, the pKd (HLA-A*02:06; [27]) was at least 10.00, the pKd (HLA-B*58:01) was 6.43 and the pKd (HLA-A*69:01 [20]) was 5.76. It also gave a pKd (HLA-A*02:01 [4]; source organism: Haemophilus influenzae) of 7.53 and a pKd (HLA-B*15:01 [21]) of 5.70.

NRYGLPEKM gave a pKd (HLA-B*27:05 [1]; source organism: Bacillus anthracis str. A0488) of 7.76.
